According to patent JP2012034697A:

Target: Aβ(βアミロイドペプチド) (UniProt P05067)
Assay: BIAcore

UniProt P05067, sequence (P05067 672-713 limits assumed): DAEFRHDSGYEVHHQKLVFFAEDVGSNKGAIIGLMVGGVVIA

Kd: 0.88 nM
Substance: マウスモノクローナル抗体3D6 (antibody)
